Measurements reported in patent publication US20220340684A1.

Columns and labels:
[1] = target: Recombinant human TRIM21 PRYSPRY domain (His-tagged, expressed in E. coli BL21 (DE3)) (human) (UniProt P19474); assay: SPR (ProteON XPR36), antibody amine-coupled to GLC chip, TRIM21 PRYSPRY as analyte, Langmuir 1:1
[2] = target: Recombinant human TRIM21 PRYSPRY domain (His-tagged, expressed in E. coli BL21 (DE3)) (human) (UniProt P19474); assay: SPR, antibody immobilized, TRIM21 PRYSPRY as analyte
[3] = target: Recombinant human TRIM21 PRYSPRY domain (His-tagged, expressed in E. coli BL21 (DE3)) (human) (UniProt P19474); assay: SPR, antibody immobilized, TRIM21 PRYSPRY as analyte; the column's head prints (M), the text gives 125 nM
[4] = target: Human TRIM21 (endogenous, cytosolic, in moDC and HeLa cells) (human) (UniProt P19474); assay: cell-based or functional assay
Human TRIM21 (endogenous, cytosolic, in moDC and HeLa cells) (human), sequence (P19474 whole entry): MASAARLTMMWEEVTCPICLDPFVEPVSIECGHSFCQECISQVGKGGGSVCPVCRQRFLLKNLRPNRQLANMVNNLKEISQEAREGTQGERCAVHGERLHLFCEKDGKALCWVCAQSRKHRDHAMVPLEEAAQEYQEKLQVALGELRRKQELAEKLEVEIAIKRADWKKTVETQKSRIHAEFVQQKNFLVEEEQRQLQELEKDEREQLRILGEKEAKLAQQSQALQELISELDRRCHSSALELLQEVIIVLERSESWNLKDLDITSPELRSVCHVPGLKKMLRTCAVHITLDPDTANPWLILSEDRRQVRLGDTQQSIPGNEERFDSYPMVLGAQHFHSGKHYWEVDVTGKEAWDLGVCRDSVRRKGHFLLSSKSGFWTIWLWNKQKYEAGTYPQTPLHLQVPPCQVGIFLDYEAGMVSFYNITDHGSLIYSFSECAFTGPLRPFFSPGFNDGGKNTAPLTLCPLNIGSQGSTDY

Recombinant human TRIM21 PRYSPRY domain (His-tagged, expressed in E. coli BL21 (DE3)) (human), sequence (P19474 287-475): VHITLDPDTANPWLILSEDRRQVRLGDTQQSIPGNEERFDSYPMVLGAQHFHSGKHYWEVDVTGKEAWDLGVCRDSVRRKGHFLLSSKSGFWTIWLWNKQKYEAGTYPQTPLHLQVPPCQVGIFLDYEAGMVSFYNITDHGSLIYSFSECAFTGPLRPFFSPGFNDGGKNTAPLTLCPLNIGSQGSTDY

Row | Substance | Kd [2] [nM] | also measured
1 | Fc-unmodified human IgG1 (anti-DEC205, variable domains of 3G9-2D2, wildtype human IgG1 constant regions) (antibody) |  | Kd [1]: 47.3 nM
2 | V2 chimeric IgG1 (9C12 variable domains, human IgG1 with 256P/433T/436F/440I Fc) (antibody) | 1620 | 
3 | V3 chimeric IgG1 (9C12 variable domains, human IgG1 with 256P/433T/434R/440I Fc) (antibody) | 0.211 | 
4 | V5 chimeric IgG1 (9C12 variable domains, human IgG1 with 433T/434R/436F/440I Fc, Thr at 256) (antibody) | 23.5 | 
5 | Wildtype chimeric IgG1 (anti-Ad5 hexon, mouse 9C12 variable domains, wildtype human IgG1 constant regions) (antibody) |  | Kd [3]: 125 nM; IC50 of ADIN of Ad5-eGFP infection in moDCs, MOI 400 [4]: 3 nM; IC50 of antibody-dependent intracellular neutralization (ADIN) of Ad5-eGFP infection in HeLa cells, MOI 1.2 [4]: 900 nM

Further lines, with some results ahead:

Row | Kd [2] [nM] | Substance | also measured
6 | 10.8 | V1 chimeric IgG1 (9C12 variable domains, human IgG1 with 256P/434R/436F/440I Fc) (antibody) | 
7 | 0.276 | V4 chimeric IgG1 (9C12 variable domains, human IgG1 with 256P/433T/434R/436F Fc) (antibody) | 
